Reference: patent US20020131970A1 (Scripps Research, published 2002)
One block for each molecule: values may come before it.

What was measured:
[1] = biological target: intercellular adhesion molecule 1 (ICAM-1), the RGD-independent fibrinogen receptor, native, on the surface of cells (HUVEC, JY lymphocytes) (human) (UniProt P05362); test: 125I-D30 at 10 µg/ml on HUVEC monolayers
[2] = biological target: recombinant ICAM-1 on the surface of transfected fibroblast-like (COS) cells of Example 4 (human) (UniProt P05362); test: 125I-D30 on ICAM-1 transfected cells, with MnCl2, no inhibitor
[3] = biological target: recombinant ICAM-1 on the surface of transfected fibroblast-like (COS) cells of Example 4 (human) (UniProt P05362); test: 125I-D30 on ICAM-1 transfected cells, with CaCl2, no inhibitor
[4] = biological target: T1, intercellular adhesion molecule 1 (ICAM-1), the RGD-independent fibrinogen receptor, native, on the surface … (human, UniProt P05362 28-532); test: adhesion of 51Cr-labelled ICAM-1+ JY lymphocytes to peptide-coated wells
T1 construct: whole, on cells; assays on HUVEC monolayers are written against this molecule; also called ECR; endothelial cell receptor

[5] = biological target: T1, intercellular adhesion molecule 1 …; test: adhesion of 51Cr-labelled ICAM-1+ JY lymphocytes to wells coated with 1-100 µg/ml peptide
Experimental: Serum-free suspensions of JY lymphocytes were labeled with 0.5 mCi ⁵¹Cr (Na₂CrO₄, specific activity 487.4 mCi/mg, E. I., DuPont de Nemours, Wilmington, Del.) for 2 h at 37° C., with a final incorporation of 0.2-4 cpm/cell (Languino, et al., supra). Aliquots of ⁵¹Cr-labeled JY lymphocytes at 1×10⁶/ml were added to peptide-coated wells for 45 min at 37° C., washed, solubilized in 20% SDS, and radioactivity associated under the various conditions was determined in a scintillation beta-counter. The number of attached cells was quantitated by dividing the cpm harvested by the cpm/cell. Data are the mean ± S.D. of two independent experiments.
The specific binding of radiolabelled ICAM-1⁺ JY lymphocytes to increasing concentrations of γ3 was measured to characterize the ICAM-1 binding site. The number of attached cells is plotted on the Y-axis against peptide concentration (μg/ml) plotted on the X-axis.

Sequence of recombinant ICAM-1 on the surface of transfected fibroblast-like (COS) cells of Example 4 (human) (P05362 28-532): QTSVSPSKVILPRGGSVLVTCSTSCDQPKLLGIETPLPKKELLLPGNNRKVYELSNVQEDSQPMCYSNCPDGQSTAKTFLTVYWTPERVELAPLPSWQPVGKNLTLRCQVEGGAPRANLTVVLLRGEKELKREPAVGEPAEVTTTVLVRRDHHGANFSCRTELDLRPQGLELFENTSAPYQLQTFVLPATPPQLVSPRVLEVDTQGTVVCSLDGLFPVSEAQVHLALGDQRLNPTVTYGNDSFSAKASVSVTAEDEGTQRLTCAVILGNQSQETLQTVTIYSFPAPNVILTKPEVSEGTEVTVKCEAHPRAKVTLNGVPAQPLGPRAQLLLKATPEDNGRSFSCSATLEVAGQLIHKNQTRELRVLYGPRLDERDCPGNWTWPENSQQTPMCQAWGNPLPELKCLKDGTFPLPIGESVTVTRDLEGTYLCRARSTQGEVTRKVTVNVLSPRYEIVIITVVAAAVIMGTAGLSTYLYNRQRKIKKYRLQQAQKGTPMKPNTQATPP
T1 sequence (P05362 28-532): as above
Sequence of intercellular adhesion molecule 1 (ICAM-1), the RGD-independent fibrinogen receptor, native, on the surface of cells (HUVEC, JY lymphocytes) (human) (P05362 28-532): as above

cpm bound [1]: 60000 cpm
cpm bound [2]: 7500 cpm
cpm bound [3]: 3000 cpm
Molecule: D30 fragment of fibrinogen (30 kD plasmin digestion product of fragment D) (from UniProt P02671 155-225; P02675 164-250)

binding result [4]: no binding (tested: 1-100 µg/ml coating)
B1: polypeptide L10, fibrinogen γ chain residues 402-411 (peptide)
peptide: LGGAKQAGDV
notes: also called control peptide L10; irrelevant polypeptide L10

binding result [5]: binds
B2: polypeptide γ3, fibrinogen γ chain residues 117-133 (peptide)
peptide: NNQKIVNLKEKVAQLEA
notes: Coated on plates in the JY adhesion assays; also called γ3 polypeptide; unlabeled γ3 peptide
